Laboratory results published in patent US10124035B2, “DISC-1 pathway activators in the control of neurogenesis” (Massachusetts Institute of Technology, priority 2008, dated 2018).

What was measured:
GSK3β [1] = molecular target: T1, GSK3β (Homo sapiens, UniProt P49841); assay: GSK3β SPR (surface plasmon resonance) binding assay; conditions: for percent theoretical maximal response (binding to GSK3β): concentration of 25 μM
T1 construct: GST; purchased Active Motif (Carlsbad, Calif.)
Method: FIG. 16B is a schematic of overlapping 15-mer peptides that covered peptide 2 and a graph showing the ability of the peptides to bind to GSK3β.
Surface plasmon resonance (SPR) was used to determine whether peptide 2 directly binds to GSK3β. GSK3β SPR binding assays were carried out with peptide 1, peptide 2, the GSK3β inhibitor L803-MTS, and as a negative control, a peptide from the N-type calcium channel, CACNA1B (FIG. 6A). […] To identify the peptide 2 sequences that mediate this interaction with GSK3β, we designed overlapping 15-mer peptides that covered peptide 2 and tested their binding to GSK3β SPR (FIG. 16B).

GSK3β [2] = molecular target: T1, GSK3β; assay: GSK3β in vitro kinase assay (β-catenin/axin phosphorylation, Y216 autophosphorylation); assay type: biochemical; conditions: for inhibition of GSK3β / inhibition of GSK3β kinase activity by peptides: in vitro kinase assay; for inhibition of GSK3β kinase activity by peptides: dose-response or comparison
From the text: (§1) • Mice. Swiss Webster pregnant female mice were purchased from Taconic (Hudson, N.Y.). • Cell Culture. AHPs were kindly provided by Dr. Gage (Lie, D. C. et al. Wnt signaling to regulates adult hippocampal neurogenesis. Nature 437, 1370-5 (2005)) and cultured under conditions described previously (Palmer, T. D., Takahashi, J. & Gage, F. H. The adult rat hippocampus contains primordial neural stem cells. Mol Cell Neurosci 8, 389-404 (1997)). Primary neural progenitors were isolated from E14 mouse embryos and cultured as described previously (Sanada, K. & Tsai, L. H. G protein betagamma subunits and AGS3 control spindle orientation and asymmetric cell fate of cerebral cortical progenitors. Cell 122, 119-31 (2005)). N2a and 293T cells were cultured in DMEM medium containing 10% FBS, L-glutamine, and penicillin/streptomycin. Wnt3a expressing L cells and untransfected L cells were obtained from ATCC (Manassas, Va.). Wnt3a conditional medium was produced according to the ATCC protocol. To induce AHP differentiation, FGF2 was removed from the culture medium and 1 μM retinoic acid/1% FBS was added to the medium for 4 days. • Reagents. Recombinant Wnt3a protein was obtained from Chemicon (Rosemont, Ill.). FGF2 was obtained from PeproTech (Rocky Hill, N.J.). Recombinant GST-GSK3β was obtained from Active Motif (Carlsbad, Calif.). Recombinant GST-β-catenin and GST-axin were obtained from Millipore (Billerica, Mass.). The GSK313 inhibitor, SB-216763, AR-A104418 and His-GSK3β, were obtained from Sigma-Aldrich (Sigma-Aldrich, St. Louis, Mo.). L803-MTS was obtained from Calbiochem (San Diego, Calif.). GST-AKT1 was obtained from Cell Signaling (Beverly, Mass.). GST-CASK-1 (CASK fragment from 316-415aa), GST-CASK-2 (CASK fragment from 777-974aa), and GST-p25 proteins were kindly provided by Dr. B. A. Samuels. Mouse DISC1 peptidel (40-78aa: GYMRSTAGSG IGFLSPAVGMPHPSSAG LTGQQSQHSQS; SEQ ID NO: 1) and Mouse DISC1 peptide 2 (195-238aa, […] GERGEAEGCLPSREAE; SEQ ID NO: 2) were synthesized by Chi Scientific (Maynard, Mass.). • Antibodies. The primary antibodies used in this study were the following: rabbit anti-DISC1 C-terminal antibody, mouse and rabbit anti-GFP antibodies (Invitrogen, Carlsbad, Calif.); affinity purified rabbit anti-DISC1 antibody (Novus, Littleton, Colo.) for immunohistochemistry; mouse anti-FLAG and mouse anti-Actin antibody; mouse anti-GSK3β antibody, mouse anti-β-catenin antibody, mouse anti-pY216 GSK3β antibody, and mouse anti-nestin antibody (BD Biosciences, San Diego, Calif.); rabbit anti-[…] β-catenin antibody, rabbit anti-pS9 GSK3β antibody, and mouse anti-cyclin to D1 antibody (Cell Signaling); mouse anti-Dv12 antibody, mouse anti-HA antibody, mouse anti-GST antibody, mouse anti-ubiquitin antibody, and rabbit anti-β-catenin antibody (Santa Cruz, Santa Cruz, Calif.); mouse Tuj-1 antibody (BABCO, Harrisburg, Pa.); mouse anti-BrdU antibody (DakoCytomation, Glostrup, Denmark); guinea pig anti-doublecortin antibody (Chemicon, Rosemont, Ill.); chicken anti-GFP antibody (Ayes Labs, Tigard, Oreg.); rabbit anti-pS10 Histone H3 antibody (Upstate, Lake Placid, N.Y.). • Constructs. The sequences for shRNAs targeting DISC1 are as follows: control shRNA: 5′-CGGCTGAAACAAGAGTTGG-3′ (SEQ ID NO:3); DISC1 shRNA-1: 5′-GGCAAACACTGTGA AGT GC-3′ (SEQ ID NO:4); DISC1 shRNA-2: 5′-[…]-3′ (SEQ ID NO:5)(Kamiya A. et al. A schizophrenia-associated mutation of DISC1 perturbs cerebral cortex development. Nat. Cell Biol 7, 1167-78 (2005)). DISC1 shRNA-1 recognizes both rat and mouse DISC1. […]

[3] = tested on: TCF reporter in 293T cells; assay: TCF reporter activity in DISC1 knockdown 293T cells with Wnt3a conditional medium; assay type: cell-based; conditions: 16 hours
Method: Primary neural stem cells from E14 brains were infected with control or DISC1 shRNA lentiviruses. 48 hours after to transduction, cells were treated with vehicle or SB-216763 (5 μM) for 16 hours and then pulsed with 10 μM BrdU for 2 hours. Shown is percentage of GFP and BrdU double positive cells to total GFP positive cells (n=3, p<0.05). b. […] 1.5 μg of vector or WT-DISC1 was cotransfected with 0.5 μg control or DISC1 shRNA-2, 0.1 μg TCF reporter, and 10 ng pRL-TK vector into 293T cells. 48 hours after transfection, Wnt3a conditional medium with vehicle, SB-216763, or AR-A104418 was added for another 16 hours.
• Mice. Swiss Webster pregnant female mice were purchased from Taconic (Hudson, N.Y.). • Cell Culture. AHPs were kindly provided by Dr. Gage (Lie, D. C. et al. Wnt signaling to regulates adult hippocampal neurogenesis. Nature 437, 1370-5 (2005)) and cultured under conditions described previously (Palmer, T. D., Takahashi, J. & Gage, F. H. The adult rat hippocampus contains primordial neural stem cells. Mol Cell Neurosci 8, 389-404 (1997)). Primary neural progenitors were isolated from E14 mouse embryos and cultured as described previously (Sanada, K. & Tsai, L. H. G protein betagamma subunits and AGS3 control spindle orientation and asymmetric cell fate of cerebral cortical progenitors. Cell 122, 119-31 (2005)). N2a and 293T cells were cultured in DMEM medium containing 10% FBS, L-glutamine, and penicillin/streptomycin. Wnt3a expressing L cells and untransfected L cells were obtained from ATCC (Manassas, Va.). Wnt3a conditional medium was produced according to the ATCC protocol. To induce AHP differentiation, FGF2 was removed from the culture medium and 1 μM retinoic acid/1% FBS was added to the medium for 4 days. • Reagents. Recombinant Wnt3a protein was obtained from Chemicon (Rosemont, Ill.). FGF2 was obtained from PeproTech (Rocky Hill, N.J.). Recombinant GST-GSK3β was obtained from Active Motif (Carlsbad, Calif.). Recombinant GST-β-catenin and GST-axin were obtained from Millipore (Billerica, Mass.). […]

AHPs = assay: Immunoblot of β-catenin and cyclin D1 in transduced AHPs; assay type: cell-based
From the text: • Mice. Swiss Webster pregnant female mice were purchased from Taconic (Hudson, N.Y.). • Cell Culture. AHPs were kindly provided by Dr. Gage (Lie, D. C. et al. Wnt signaling to regulates adult hippocampal neurogenesis. Nature 437, 1370-5 (2005)) and cultured under conditions described previously (Palmer, T. D., Takahashi, J. & Gage, F. H. The adult rat hippocampus contains primordial neural stem cells. Mol Cell Neurosci 8, 389-404 (1997)). Primary neural progenitors were isolated from E14 mouse embryos and cultured as described previously (Sanada, K. & Tsai, L. H. G protein betagamma subunits and AGS3 control spindle orientation and asymmetric cell fate of cerebral cortical progenitors. Cell 122, 119-31 (2005)). N2a and 293T cells were cultured in DMEM medium containing 10% FBS, L-glutamine, and penicillin/streptomycin. Wnt3a expressing L cells and untransfected L cells were obtained from ATCC (Manassas, Va.). Wnt3a conditional medium was produced according to the ATCC protocol. To induce AHP differentiation, FGF2 was removed from the culture medium and 1 μM retinoic acid/1% FBS was added to the medium for 4 days. • Reagents. Recombinant Wnt3a protein was obtained from Chemicon (Rosemont, Ill.). FGF2 was obtained from PeproTech (Rocky Hill, N.J.). Recombinant GST-GSK3β was obtained from Active Motif (Carlsbad, Calif.). Recombinant GST-β-catenin and GST-axin were obtained from Millipore (Billerica, Mass.). The GSK313 inhibitor, SB-216763, AR-A104418 and His-GSK3β, were obtained from Sigma-Aldrich (Sigma-Aldrich, St. Louis, Mo.). L803-MTS was obtained from Calbiochem (San Diego, Calif.). GST-AKT1 was obtained from Cell Signaling (Beverly, Mass.). GST-CASK-1 (CASK fragment from 316-415aa), GST-CASK-2 (CASK fragment from 777-974aa), and GST-p25 proteins were kindly provided by Dr. B. A. Samuels. Mouse DISC1 peptidel (40-78aa: GYMRSTAGSG IGFLSPAVGMPHPSSAG LTGQQSQHSQS; SEQ ID NO: 1) and Mouse DISC1 peptide 2 (195-238aa, […] GERGEAEGCLPSREAE; SEQ ID NO: 2) were synthesized by Chi Scientific (Maynard, Mass.). • Antibodies. […]

[4] = tested on: neural progenitors in embryonic mouse brains; assay: In utero electroporation of shRNA into E13 embryonic mouse brains; assay type: in vivo
From the text: as §1

[5] = electroporated at E13, analyzed 3 days later

T1 sequence (P49841 whole entry): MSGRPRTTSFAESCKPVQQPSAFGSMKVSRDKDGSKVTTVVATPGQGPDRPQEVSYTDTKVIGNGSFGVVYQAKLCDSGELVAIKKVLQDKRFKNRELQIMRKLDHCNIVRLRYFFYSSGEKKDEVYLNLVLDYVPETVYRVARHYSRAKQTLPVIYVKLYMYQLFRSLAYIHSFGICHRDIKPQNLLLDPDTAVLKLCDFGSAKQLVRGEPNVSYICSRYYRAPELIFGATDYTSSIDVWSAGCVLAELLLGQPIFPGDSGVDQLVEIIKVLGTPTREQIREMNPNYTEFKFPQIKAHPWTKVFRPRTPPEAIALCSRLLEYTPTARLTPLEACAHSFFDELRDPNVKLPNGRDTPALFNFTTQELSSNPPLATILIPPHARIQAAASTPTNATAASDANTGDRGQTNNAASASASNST

## peptide 1: Mouse DISC1 peptide, 40-78aa, SEQ ID NO: 1, synthesized by Chi Scientific (GYMRSTAGSGIGFLSPAVGMPHPSSAGLTGQQSQHSQS; listed as Mus musculus)
GSK3β [1]
  percent theoretical maximal response (binding to GSK3β): 62%
GSK3β [2]; at 80 μM
  inhibition of GSK3β: did not inhibit GSK3β
GSK3β [2]; no single concentration
  inhibition of GSK3β kinase activity by peptides: did not inhibit GSK3β activity

## peptide 2: Mouse DISC1 peptide, 195-238aa, PADIASLPGFQDTFTSSFSFIQLSLGAAGERGEAEGCLPSREAE, SEQ ID NO: 2 (listed as Mus musculus)
GSK3β [1]
  percent theoretical maximal response (binding to GSK3β): 197%
GSK3β [2]; at 1 μM
  inhibition of GSK3β: did not inhibit GSK3β
GSK3β [2]; at 10 μM
  inhibition of GSK3β: inhibited GSK3β
GSK3β [2]; no single concentration
  inhibition of GSK3β kinase activity by peptides: inhibited GSK3β more potently than the commercial GSK3β peptide inhibitor, L803-MTS
GSK3β [2]; no single concentration, listed as DISC1 peptide 1(195-238aa)
  inhibition of GSK3β kinase activity by peptides: dose-dependent
GSK3β [2]; no single concentration, listed as Peptide 195-238
  inhibition of GSK3β kinase activity by peptides: inhibited GSK3β in a dose-dependent manner more potently than the commercial peptide inhibitor, L803-MTS

## peptide 3: 15-mer peptide that encompasses mDISC1 amino acids 211 to 225 (SFSFIQLSLGAAGER; listed as Mus musculus)
GSK3β [1]; 15-mer peptide
  percent maximal binding to GSK3β: 238%
GSK3β [1]; result in words
  binding to GSK3β: bound to GSK3β
GSK3β [2]; no single concentration
  inhibition of GSK3β kinase activity by peptides: failed to inhibit GSK3β kinase activity

## COc1ccc(CNC(=O)Nc2ncc([N+](=O)[O-])s2)cc1 [AR-A014418]
[3]
  TCF reporter activity in DISC1 knockdown cells: rescued TCF activity in DISC1 knockdown cells to control levels
[3]; listed as AR-A104418
  TCF reporter activity in DISC1 knockdown cells: rescues the TCF activation defect caused by DISC1 knockdown

## DISC1 shRNA-2: shRNA targeting human, rat and mouse DISC1, SEQ ID NO:5, in pLentiLox 3.7 vector (GCAGGAGGTCAGCAAGGCCTTG)
AHPs
  reduction of Cyclin D1 levels: 70%
  β-catenin levels: 19 % to control
[4]; BrdU 2 hours prior to collection
  BrdU labeling: 15.9±2.2%
[4]; electroporated E13, BrdU at E15, collected E16
  cell cycle exit index: 66.5±13.2%
[4]; electroporated E13, sacrificed E16, SVZ
  GFP+Dcx+ cells: 42.3±5.8%
[4]; [5]
  GFP positive cells in the VZ/SVZ: 10%
  GFP positive cells in the cortical plate: 62%
[4]; pH3, electroporated E13, sacrificed E15
  mitotic index: 3.5±0.8%

B1: DISC1 fragment 221-355: GST-tagged mouse DISC1 protein fragment, amino acids 221-355 (protein, UniProt Q811T9 221-355, looked up, fragment)
chain: AAGERGEAEGCLPSREAEPLHQRPQEMAAEASSSDRPHGDPRHLWTFSLHAAPGLADLAQVTRSSSRQSECGTVSSSSSDTGFSSQDASSAGGRGDQGGGWADAHGWHTLLREWEPMLQDYLLSNRRQLEVTSLI
modifications: GST tag
GSK3β [2]; GST-DISC1 fragments at 2 μM
  inhibition of GSK3β autophosphorylation (Y216): started to inhibit GSK3β autophosphorylation
GSK3β [2]; no single concentration, dose dependence, rank
  inhibition of GSK3β activity by DISC1 fragments: able to inhibit GSK3 activity
